# How the values were obtained:
# THP-1 cells [1] = test: Western blot of cytokine protein levels in transfected THP-1 cells (FIG. 6d); format: cell-based, human; settings: overexpression in THP-1 cells
# Source text: (§1) Since both LITAF and STAT6(B) were found in the nucleus (FIG. 5), it was further investigated whether they act separately or in concert in mediating activation of TNF-α. While studying the complex, a cytokine array was employed to look at effects on other cytokines (FIG. 6a-6c.). The assay was preformed as follows. Using an empty vector as a control (FIG. 6b1), DNA of LITAF (full length, FIG. 6b2), STAT6(B) (full length; FIG. 6b3) or both full length of LITAF+STAT6(B) (FIG. 6b4), respectively, was transfected or co-transfected into THP-1 cells. Conditioned medium from each treated cell type was then prepared and incubated with membranes containing an array of 44 human protein cytokine antibodies (FIG. 6a). Autoradiographs were scanned, and the density of each cytokine at the corresponding position was determined. […] The relative intensities of each cytokine were normalized to control spots on the same membrane. Major increases or decreases among cytokines are represented graphically in FIG. 6c. […] In order to confirm these findings at the protein level we selected the four most strongly affected cytokines, IL-1α, IL-10, MCP-2 and RANTES and, under the same experimental conditions, measured their protein levels by Western blots.
# THP-1 cells [2] = test: Human cytokine antibody array of conditioned medium from transfected THP-1 cells; format: cell-based; settings: single transfection
# Source text: as §1
# VEGF promoter = VEGF promoter activity / VEGF expression in transfected U2OS cells; format: cell-based, human; settings: transient transfection into U2OS cells with pcVEGF or pEVEGF
# Procedure: To determine that this activation occurred at the transcriptional level, VEGF promoter activity assays were performed. A full length VEGF sequence, with or without its enhancer element (−2040˜+1), named pcVEGF or pEVEGF, was cloned into pcDNA3 plasmid. The cloned DNA with LITAF and/or STAT6(B) DNAs were transiently co-transfected into U2OS cells as described in FIG. 11a.
# MCP-1 promoter = test: Luciferase assay of MCP-1 promoter activity after transient transfection (FIG. 16); format: cell-based
# Source text: To show this hypothesis, monocyte chemoattractant protein-1 (MCP-1), an important component of the inflammatory process, is selected to determine whether its LPS-triggered transcriptional regulation parallels observations for TNF. Recent studies have shown that the MCP-1 promoter activity can be regulated by NF-KB, STAT1, CEB/P homologous protein (CHOP), heme oxygenase-1 (HO-1) or activated protein C (APC) (Kim, et al, Clin Exp Immunol, 140:450-460, 2005; Jaruga, et al., Am J Physiol Gastrointest Liver Physiol, 287:G471-479, 2004, Abraham, et al., J Neuroimmunol, 160:219-221, 2005; Kanakiriya, et al., Am J Physiol Renal Physiol, 284:F:546-554, 2003). However, the precise LPS signaling pathways leading to MCP-1 induction have not been fully identified. In Examples 1-3, above, the regulation of LPS-induced inflammatory cytokine expression was shown. […] Thus, CTCCC represents a specific sequence in cytokine promoters to which LITAF binds for activity. […] Thus, short peptides with amino acids designed and synthesized based on the potential binding domain of LITAF and STAT6(B) jointly enhance MCP-1 promoter activity.
# TNF-α promoter = TNF-α promoter luciferase assay in transfected U2OS cells; format: cell-based, human; settings: transfection alone
# Procedure: In order to characterize the functional importance of LITAF in the LITAF/STAT6(B) complex, the effect of the complex was examined, with and without silenced LITAF, on TNF-α promoter activity. U2OS cells containing the TNF-promoter linked to luciferase were transiently transfected with LITAF alone, STAT6(B) alone, or both DNAs as described. TNF-α promoter activity was analyzed via luciferase activity. […] The TNF-α concentrations in the supernatants of these transfected THP-1 cells was also measured. […] They further indicate that LITAF might play a leading role in cytokine regulation after the LITAF-STAT6(B) complex translocates to the nucleus in the cells.
# [3] = tested on: Porcine aortic endothelial (PAE) cells expressing VEGFR-2 spheroids; test: In vitro angiogenesis/tubulogenesis assay with supernatants of transfected THP-1 cells; format: cell-based; settings: supernatant from transfected THP-1 cells, 2 days
# Procedure: In Vitro Angiogenesis/Tubulogenesis assay of VEGF. To expand the observations that STAT6(B) is a potent stimulator of VEGF, and that the LITAF-STAT6(B) complex is inhibitory, culture supernatant fluids of LITAF-, STAT6(B)- or LITAF-STAT6(B)-transfected THP1 cells were tested in an in vitro angiogenesis/tubulogenesis assay. The assay was preformed as follows. Porcine aortic endothelial (PAE) cells expressing VEGFR-2 spheroids were generated as described in the art (Mayer and Rahimi, Ann. NY Acad. Sci, 995:200-207, 2003). A defined number of cells were suspended in DMEM containing 1% fetal bovine serum and 0-0.24% (w/v) carboxymethylcellulose (4000 centipoise) in non-adherent round-bottom 96-well plates under standard cell culture conditions. After 24 hours all cells formed one single spheroid per well (about 750 cells/spheroid). Spheroids were cultured for 2 days before using them in the in vitro angiogenesis assay in the following manner Spheroids containing about 750 cells were embedded in collagen gels. Eight volumes of collagen were mixed with 1 volume of 10×HEPES-buffered saline solution containing 10% 10×DMEM with phenol red. […]
# It was determined whether VEGF, induced by STAT6(B), was active and capable of inducing angiogenesis and that the LITAF-STAT6(B) complex effect would inhibit this activity. […]
Molecule,"protein levels of IL-1α, IL-10, MCP-2 and RANTES by Western blot (THP-1 cells [1])",effect on IL-1α (cytokine array) (THP-1 cells [2]),effect on TNF-α (cytokine array) (THP-1 cells [2]),VEGF gene expression / transcription (VEGF promoter),MCP-1 promoter activity / MCP-1 expression (MCP-1 promoter),effect on GRO (cytokine array) (THP-1 cells [2]),effect on IL-10 (cytokine array) (THP-1 cells [2]),effect on RANTES (cytokine array) (THP-1 cells [2]),TNF-α promoter luciferase activity (TNF-α promoter),in vitro angiogenesis/tubulogenesis [3]
"STAT6(A): known gene STAT6 (GenBank), referred to as STAT6(A) in this study (protein, UniProt P42226 2-847, looked up) Signal transducer and …: SLWGLVSKMPPEKVQRLYVDFPQHLRHLLGDWLESQPWEFLVGSDAFCCNLASALLSDTVQHLQASVGEQGEGSTILQHISTLESIYQRDPLKLVATFRQILQGEKKAVMEQFRHLPMPFHWKQEELKFKTGLRRLQHRVGEIHLLREALQKGAEAGQVSLHSLIETPANGTGPSEALAMLLQETTGELEAAKALVLKRIQIWKRQQQLAGNGAPFEESLAPLQERCESLVDIYSQLQQEVGAAGGELEPKTRASLTGRLDEVLRTLVTSCFLVEKQPPQVLKTQTKFQAGVRFLLGLRFLGAPAKPPLVRADMVTEKQARELSVPQGPGAGAESTGEIINNTVPLENSIPGNCCSALFKNLLLKKIKRCERKGTESVTEEKCAVLFSASFTLGPGKLPIQLQALSLPLVVIVHGNQDNNAKATILWDNAFSEMDRVPFVVAERVPWEKMCETLNLKFMAEVGTNRGLLPEHFLFLAQKIFNDNSLSMEAFQHRSVSWSQFNKEILLGRGFTFWQWFDGVLDLTKRCLRSYWSDRLIIGFISKQYVTSLLLNEPDGTFLLRFSDSEIGGITIAHVIRGQDGSPQIENIQPFSAKDLSIRSLGDRIRDLAQLKNLYPKKPKDEAFRSHYKPEQMGKDGRGYVPATIKMTVERDQPLPTPELQMPTMVPSYDLGMAPDSSMSMQLGPDMVPQVYPPHSHSIPPYQGLSPEESVNVLSAFQEPHLQMPPSLGQMSLPFDQPHPQGLLPCQPQEHAVSSPDPLLCSDVTMVEDSCLSQPVTAFPQGTWIGEDIFPPLLPPTEQDLTKLLLEGQGESGGGSLGAQPLLQPSHYGQSGISMSHMDLRANPSW",not altered,,,,,,,,,
"LITAF: LPS-induced TNF-α factor, SEQ ID NO: 1; full length DNA transfected for overexpression (protein, listed as Homo sapiens) MSVPGPYQAATGPSSAPSAPPSYEETVAVNSYYPTPPAPMPGPTTGLVTGPDGKGMNPPSYYTQPAPIPNNNPITVQTVYVQHPITFLDRPIQMCCPSCNKMIVSQLSYNAGALTWLSCGSLCLLGVHSGLLLHPLLRGCPAGRGPLLSQLQSSPGHLQAFVGLSQTQREPGAAGSPFHLSSSFTPGGGSALVVSPLQGAHLHVFFWGEYVAKLTNLQTPEIAAWSRA",not altered,modestly up-regulated,modestly up-regulated,did not have any effect,significantly up-regulated,,,,,
"STAT6(B): novel protein, Signal transducer and activator of transcription, SEQ ID NO: 2; full length DNA transfected (protein, listed as Homo sapiens) MARRNPSPPLQRLRDWGHHHCPCHPGPGWLSTDGEHPAILCQRPVHSLTGGPNPGSCSAQKSLSQEAQGGGFPEPLQAWAGTGCSDSFLSPTSSLLPAALLSLPVCHPDVTPYFIAVLLLLPHDPCPPFPPPFLPNPRALHGCLFLLTTAEQMGKDGRGYVPATIKMTVERGVWWYGQWVGQGLVVLICRKEGWHQPLVSHMYLLPSSRDQPLPTPELQMPTMVPSYDLGMAPDSSMSMQLGPDMVPQVYPPHSHSIPPYQGLSPEESVNVLSAFQEPHLQMPPSLGQMSLSFDQPHPQGLLPCQPQEHAVSSPDPLLCSDVTTVEDSCLSQPVTAFPQGTWIGEDIFPPLLPPTEQDLTKLLLEGQGESGGGSLGAQPLLQPSHYGQSGISMSHMDLRANPSW",modest induction of all except MCP-2,up-regulated,,significantly upregulated,significantly up-regulated,up-regulated,up-regulated,up-regulated,did not substantially change,stimulated
